Reference: patent publication US20240209361A1 (Johns Hopkins, published 2024)
No end group written: not given here. (C16)2‑Glu‑C2 = not defined here

What was measured:
[1] = molecular target: T1, integrin α5β1 on patient-derived glioblastoma stem-like cells (GBM-CCC-001, GBM-CCC-002, GBM-CCC-003) (human (patient-derived cells), UniProt P08648 42-1049; P05556 21-798); assay: flow cytometry blocking experiment on GBM-CCC-001 cells; 1 mg/mL free PR_b peptide for 1 hour, then PR_b liposomes for 1 hour at 37° C.
T1 construct: whole, on cells; Endogenous heterodimer on cells; The cells were not engineered, so other surface proteins were also present; also called α5β1 integrin; integrin α5β1 polypeptide
Description: (§1) GSC neurospheres (GBM-CCC-001, GBM-CCC-002 and GBM-CCC-003) were collected into 15 mL Falcon tubes, pelleted down, and dissociated into single cells. About 200,000 cells were transferred into Eppendorf tubes in neurosphere culture media and treated with 2 mM calcein loaded PR_b liposomes or non-targeted liposomes at a lipid concentration of 150 μM for 48 hours at 37° C. on a shaker. After the incubation period, cells were pelleted down and washed twice with PBS. Flow cytometric analysis was carried out immediately using BD FACSCanto. Non-treated cells that received only media served as a control. Cell autofluorescence was subtracted from all measurements. For the blocking experiment, the same procedure was followed, except cells were preincubated with 1 mg/mL free PR_b peptide in media for 1 hour at 37° C. prior to addition of the PR_b liposomes and incubation for an additional 1 hour at 37° C.

[2] = molecular target: T1, integrin α5β1 on patient-derived …; assay: flow cytometry of calcein-loaded liposomes (150 µM lipid) on GBM-CCC-001, GBM-CCC-002 and GBM-CCC-003 cells, 48 hours at 37° C.
Description: as §1

T1 sequence (P08648 42-1049, chain 1 of 2): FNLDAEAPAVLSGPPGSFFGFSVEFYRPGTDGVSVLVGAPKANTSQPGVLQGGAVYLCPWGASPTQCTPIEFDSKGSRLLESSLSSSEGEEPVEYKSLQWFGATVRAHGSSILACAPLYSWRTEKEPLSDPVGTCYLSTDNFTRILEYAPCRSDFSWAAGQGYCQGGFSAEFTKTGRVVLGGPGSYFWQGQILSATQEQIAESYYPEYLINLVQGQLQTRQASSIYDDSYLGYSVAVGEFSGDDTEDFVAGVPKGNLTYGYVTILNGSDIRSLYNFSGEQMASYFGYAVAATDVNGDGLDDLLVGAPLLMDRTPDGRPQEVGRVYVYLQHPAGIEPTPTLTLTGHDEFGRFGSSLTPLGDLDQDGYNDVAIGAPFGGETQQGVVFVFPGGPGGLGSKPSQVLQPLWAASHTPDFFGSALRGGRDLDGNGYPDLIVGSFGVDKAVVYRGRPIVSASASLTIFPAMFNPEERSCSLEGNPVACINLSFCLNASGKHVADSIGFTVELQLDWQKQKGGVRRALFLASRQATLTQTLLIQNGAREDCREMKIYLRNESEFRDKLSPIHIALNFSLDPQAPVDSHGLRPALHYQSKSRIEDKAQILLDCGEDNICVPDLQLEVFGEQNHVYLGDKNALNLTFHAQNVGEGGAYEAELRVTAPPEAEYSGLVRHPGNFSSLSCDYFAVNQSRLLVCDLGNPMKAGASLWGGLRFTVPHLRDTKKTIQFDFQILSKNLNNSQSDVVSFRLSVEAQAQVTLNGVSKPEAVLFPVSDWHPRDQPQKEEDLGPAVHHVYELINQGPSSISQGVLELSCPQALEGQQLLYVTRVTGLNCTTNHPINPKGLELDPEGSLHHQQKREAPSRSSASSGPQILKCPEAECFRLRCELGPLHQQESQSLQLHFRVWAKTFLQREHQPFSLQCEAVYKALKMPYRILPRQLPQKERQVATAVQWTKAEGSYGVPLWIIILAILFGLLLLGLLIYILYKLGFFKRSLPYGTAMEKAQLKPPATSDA
T1 sequence (P05556 21-798, chain 2 of 2): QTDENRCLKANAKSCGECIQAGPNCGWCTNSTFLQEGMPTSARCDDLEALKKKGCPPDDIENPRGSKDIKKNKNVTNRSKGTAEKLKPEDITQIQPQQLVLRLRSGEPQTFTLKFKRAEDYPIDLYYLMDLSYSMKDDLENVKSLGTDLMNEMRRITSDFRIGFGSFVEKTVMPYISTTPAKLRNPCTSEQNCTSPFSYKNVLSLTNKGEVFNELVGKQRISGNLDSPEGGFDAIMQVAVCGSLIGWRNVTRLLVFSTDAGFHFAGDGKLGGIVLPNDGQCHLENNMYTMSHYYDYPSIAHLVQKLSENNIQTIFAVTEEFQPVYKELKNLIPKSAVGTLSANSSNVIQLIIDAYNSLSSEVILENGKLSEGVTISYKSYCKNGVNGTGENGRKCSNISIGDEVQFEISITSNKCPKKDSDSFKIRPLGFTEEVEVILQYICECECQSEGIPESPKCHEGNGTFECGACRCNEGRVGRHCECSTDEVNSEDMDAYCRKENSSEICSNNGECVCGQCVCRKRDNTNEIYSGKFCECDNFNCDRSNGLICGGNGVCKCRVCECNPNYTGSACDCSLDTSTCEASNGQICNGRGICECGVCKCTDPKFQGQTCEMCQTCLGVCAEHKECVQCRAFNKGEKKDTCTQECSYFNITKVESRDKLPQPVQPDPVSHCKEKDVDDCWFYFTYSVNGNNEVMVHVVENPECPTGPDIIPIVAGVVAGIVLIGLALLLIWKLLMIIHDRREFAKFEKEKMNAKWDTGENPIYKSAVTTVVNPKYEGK

binding result [1]	binding result [2]	Binder
binds	–	KSSPHSRNSGSGSGSGSGRGDSP [free PR_b peptide]
–	binds	{(C16)2‑Glu‑C2}-KSSPHSRNSGSGSGSGSGRGDSP (reading uncertain; also: printed as (C16)2-Glu-C2-KSSPHSRNSGSGSGSGSGRGDSP, Synthetic fibronectin-mimetic peptide)
